{
  "source": "a protein production outcome set (Wang et al. 2014)",
  "data": [
    {"experiment": "label from the status in PepcDB records", "values": [
      {"sequence": "MSPPPAPNPIRDSLIARADALREGGAPAEARDLYRLVLDRHPGHGPALAGLGRILLGLGQPTAALESLGAAVAADPTRLDWLADLAVALAGARRPAEALSAAEGLPATAGALGFRADRLEELGRRDQAIALLDDALRRHPDEAELHRRQGVLLRRAGRAAQAIAPWRALVALRPGDAAAWSSLGAGLGESGLDEEAEKALRRAVALAADEPDWTYNLAHFLIERDRLEDALPLLDAAVARAPERAHYHTNLGVCRLGLGDIKGAIAAHRQALALDPDEPEARYDLAWALLLAGAWEEGWAAHEARWRMGRFTGRRAAGPAPTDWPMPLWDGQPLGPGRTLLLHAEQGFGDSLMMSRLIIPALARAGDAQGIIECPPSLVGLLAQSLGPALGPAVRVVAQAESPPAADAHLPLMSLPHRLGVDSETIPGPDRWLRAEPAPRPPSSPPRVGLVWAGDPGNRMDRLRSCPATALRPLFDRVKDAGLDIAWTGLQLGPPAADLPDLPAALAPGGDFAATARVVAALDLVIGVDTAVIHLAGGLGVETWVMLAYVPDYRWMMDRDDSPWYPSARLFRQSRRGDWRGVIAQVAAALTKRFG", "protein production": "failed"},
      {"sequence": "MSPVVIAVVGVVVLLVLLALVVVSRYKVAGPSEAFIVTGRRGKRSTDPETGRVFTDNSGQKVVVGGGVFVVPFVQQRFTLDLSSRHIPVAVRGAVTLRGVKANLEGVAIVKVGGTEDAIRAAAQRFLMQQDGIVGFTQEVLSGALRAIVGRMSVEDVIRDRAAFAGQVAEEAEASLSGQGLVLDAFQIQDITTEGSYLEDLGRPEAARAKQEADIAEAVARRAAEQARLKAEEEIAVAQRTLYLKQAEIKAETDQAEARANASGPLAEAARQQDILAEQEKVAERQAALKDRQLDTEVRKPADAQRYAAEQEAEARRVARVKQAEAERAAGIAAAQAEAERARLTGEGEKQRRSALADAVRLEGDAEAAAIGAKGAAEAEAMEKKADAFDRYGDAAVLQMLVEVLPQVVAKASEPLAAVDKMTVISTDGASRLTRTVADNVAQGMELLGSTTGVDLTSLLKGITAKEGITAKGEAGRATTENGKVEITDLEHHHHHH", "protein production": "not failed"},
      {"sequence": "MSQAISLNQSTWASKLKAMGPGILMATAAVGGSHIVSSTQAGGSYGWSLLLLVILANVFKYPFFRFGAEYTADTGKTLVEGYAEKGKLYLWIFFILNVFSAMVNTAGVAILCSAIIASAFPMIGLSITQWSLILVAIIWAMLLFGGYKLLDGMVKWIMSALTIATVLAVIIAAVKHPEYSSDFVEKTPWQMAALPFIVSLLGWMPAPIEISAINSLWSAEKRKTVNFNTEDALFDFNTGYIGTAILAVFFVALGALIQYPTGQAVEAASAKYISQFVGMYASVLGEWSRYLITFIAFLCIFGTVITVIDGYSRVNQESLRLLISQKEDNRKSLNIWMTITAIIGIVIIKFFAGQVSTMLRFAMIGSFLTTPFFALLNYALVTRENKNLPSWLKHLAIAGLIFLFGFAIFFIYALAIGKAG", "protein production": "failed"},
      {"sequence": "MSQATAKVNREVQAFLQDLKGKTIDHVFFVACGGSSAIMYPSKYVFDRESKSINSDLYSANEFIQRNPVQLGEKSLVILCSHSGNTPETVKAAAFARGKGALTIAMTFKPESPLAQEAQYVAQYDWGDEALAINTNYGVLYQIVFGTLQVLENNTKFEQAIEGLDQLQAVYEKALKQEADNAKQFAKAHEKESIIYTMASGANYGVAYSYSICILMEMQWIHSHAIHAGEYFHGPFEIIDESVPFIILLGLDETRPLEERALTFSKKYGKKLTVLDAASYDFTAIDDSVKGYLAPLVLNRVLRSYADELAEERNHPLSHRRYMWKVEY", "protein production": "not failed"},
      {"sequence": "MSQAVLATETNRRQLQQIISGLSDGVILIETDKARTLLWANEAALAMHGVSTVEQLGGNLREYARRYALRYRNNHPLGLDSYPINRVAAGETFSDVVVEVQAEIDGEPRHWVHRVRSMILEDRNGAPESLVLILSDATDWASAEQRFEKTFNANPAPAVICRLGDLRYIKVNQGFLEMTGYARDQVIGRSVYELDVLEDAEHKELAVERLGQGATIPQMQAELRLPEGGSKLVIVAGQPLDINDEDCMLFSFMDLEPRRKAEIALRQSEERFAKSFRLTPVPTLVCSAEQQIVDVNEAFLDTCGYSSEELLGKTVQDIGFIAEPQAAEQLFGRLEKSGNVMGLDLKVRKKGAEQVDCVAYADTVLIQDSPCYLLVLMDISERKRSELELVGAIEEVMRDASWFSQTLIEKLANVRNTRSAQAPAVTSAELTTREREVLGLIYQGLADKEIAAQLQLAPNTVRNHVATLYSKLDVHSRGEAIVWARERGLFAGSAG", "protein production": "failed"},
      {"sequence": "MSQEYTEDKDVTLTKLSSGRRLLEALLILIALFAVWLMAALLSFNPSDPSWSQTAWHEPIHNLGGAPGAWLADTLFFIFGVMAYTIPVIIVGGCWFAWRHQSTDDYIDYFAVSLRLIGVLALILTSCGLAAINADDIWYFASGGVIGSLLSTTLQPLLHSSGGTIMLLCIWAAGLTLFTGWSWVSIAEKLGGWLLNILTFASNRTRRDDTWVDDEEYDDEYDEETDGVQRESRRARILRGALARRKRLAEKFSNPRGRQTDAALFSGKRMDDDEDIQYSARGVAADPDDVLFSGNRATQPEYDEYDPLLNGHSVTEPVAAAAAATAVTQTWAASADPIMQTPPMPGAEPVVAQPTVEWQPVPGPQTGEPVIAPAPEGYQPHPQYAQPQEAQSAPWQQPVPVASAPQYAATPATAAEYDSLAPQETQPQWQAPDAEQHWQPEPTHQPEPIAAEPSHMPPPVIEQPVTTEPEPGIEETRPARPPLYYFEEVEEKRAREREQLAAWYQPIPEPVKENVPVKPTVSVAPSIPPVEAVAAAASLDAGIKSGALAAGAAAAAPAFSLATGGAPRPQVKEGIGPQLPRPNRVRVPTRRELASYGIKLPSQRIAEEKAREAERNQYETGVQLTDEEIDAMHQDELARQFAQSQQHRYGETYQHDTQQAEDDDTAAEAELARQFAASQQQRYSGEQPAGAQPFSLDDLDFSPMKVLVDEGPHEPLFTPGVMPESTPVQQPVAPQPQPQYQQSQQPVAPQSQYQQPQQPVAPQPQPQYQQSQQPVAPQSQYQQPQQPVAPQPQYQQPQQPVAPQPQYQQPQQPTAPQPQYQQPVAPQPQYQQPQQPVAPQPQYQQPQQPTAPQDSLIHPLLMRNGDSRPLQRPTTPLPSLDLLTPPPSEVEPVDTFALEQMARLVEARLADFRIKADVVNYSPGPVITRFELNLAPGVKAARISNLSRDLARSLSTVAVRVVEVIPGKPYVGLELPNKKRQTVYLREVLDNAKFRENPSPLTVVLGKDIAGDPVVADLAKMPHLLVAGTTGSGKSVGVNAMILSMLYKAQPEDVRFIMIDPKMLELSVYEGIPHLLTEVVTDMKDAANALRWSVNEMERRYKLMSALGVRNLAGYNEKIAEAARMGRPIPDPYWKPGDSMDVQHPVLEKLPYIVVLVDEFADLMMTVGKKVEELIARLAQKARAAGIHLVLATQRPSVDVITGLIKANIPTRIAFTVSSKIDSRTILDQGGAESLLGMGDMLYSGPNSTMPVRVHGAFVRDQEVHAVVQDWKARGRPQYVDGITSDSESEGGGGGFDGGEELDALFDQAVNFVTQKRKASISGVQRQFRIGYNRAARIIEQMEAQGIVSAQGHNGNREVLAPPPFE", "protein production": "failed"},
      {"sequence": "MSQKGEAEGIARIRSAALFYIVAILITLVAVFAVFIPLIVSISSISSNLSNPNASSASAAAGGILSAVIGVIVVAVIVSIVILVFIILSFLRFRDGFSILQAIGRDVGIGKTGTTLILVGAILLIIPFLDIIGIILIFVGQILLGIGIYRIGEIYNNSLTKIGGILVAIPLIDITAFIGMIMTYVGVGQIQREFGMRPPLPPSSQIPSQQTGSGVLRGNGTADLNIYLQTQEQVVSAQILGTNYLTGLIVPNMLQPGFNNLTVNFNVPLNLMPNSIYVIRLNLASGRTLDVNVTFQP", "protein production": "failed"},
      {"sequence": "MSQLPAWPRITRESTAMYHLRVPQTEEELERYYQFRWEMLRKPLHQPKESERDGWDALAHHQIVVDEEGNLVAVGRLYINADNEASIRFMAVHPSVQDKGLGTLMAMTLESVARQEGVKRVTCSAREDAVEFFAKLGFVNQGEITTPTTTPIRHFLMIKPVASLDDILHRGDWCGQLQQAWYEHIPLSEKMGVRIQQYTGQKFITTMPETGNQNPHHTVFAGSLFSLATLTGWGLIWLMLRERHLGGTIILADAHIRYSKPISGKPNAVADLGSLSGDLDRLARGKKARVQLQVELLGGETAGAIFEGIYIVLPAKPFGPYEEGGNEEE", "protein production": "failed"},
      {"sequence": "MSQLTFWFGCALVALIAEFVSGTFYLLMVALALACGGFAAWLGAPEPWQWLIASVSGAVGLLAIHRRRRSLMPPPPPQDDPDWGQQVEIRALTTPGHARIHYRGAEWDALLMDSRLDAGSTGYISGREGNLFKISSQQPQ", "protein production": "failed"}
    ]}
  ]
}
